This passage reports binding result and Kd results from patent publication US20160369002A1 (INNATE PHARMA, published 2016).

Experiment [1] deals with T1, Human NKp46 recombinant protein (human, UniProt O76036 22-258).
T1 construct: also called recombinant human NKp46 proteins
Put plainly: SPR (Biacore T100), bispecific captured on Protein-A chip, soluble recombinant human NKp46. The protocol:
SPR measurements were performed on a Biacore T100 apparatus (Biacore GE Healthcare) at 25° C. In all Biacore experiments HBS-EP+ (Biacore GE Healthcare) and NaOH 10 mM served as running buffer and regeneration buffer respectively. Sensorgrams were analyzed with Biacore T100 Evaluation software. Protein-A was purchased from (GE Healthcare). Human NKp46 recombinant proteins were cloned, produced and purified at Innate Pharma.
The chip surface was activated with EDC/NHS (N-ethyl-N′-(3-dimethylaminopropyl) carbodiimidehydrochloride and N-hydroxysuccinimide (Biacore GE Healthcare)). Protein-A was diluted to 10 μg/ml in coupling buffer (10 mM acetate, pH 5.6) and injected until the appropriate immobilization level was reached (i.e. 2000 RU). Deactivation of the remaining activated groups was performed using 100 mM ethanolamine pH 8 (Biacore GE Healthcare).
Seven serial dilutions of human NKp46 recombinant proteins, ranging from 6.25 to 400 nM were sequentially injected over the captured Bi-Specific antibodies and allowed to dissociate for 10 min before regeneration. The entire sensorgram sets were fitted using the 1:1 kinetic binding model.

The target in experiment [2] is T2, Human CD64 (human, UniProt P12314 16-288, limits assumed).
T2 construct: also called FcγRI
Put plainly: SPR (Biacore T100), bispecific immobilised on CM5 chip, soluble CD64 0.7-60 nM, 1:1 kinetic model. The protocol: (§1) SPR measurements were performed on a Biacore T100 apparatus (Biacore GE Healthcare) at 25° C. In all Biacore experiments HBS-EP+ (Biacore GE Healthcare) and 10 mM NaOH, 500 mM NaCl served as running buffer and regeneration buffer respectively. Sensorgrams were analyzed with Biacore T100 Evaluation software. Recombinant human FcR's (CD64, CD32a, CD32b, CD16a and CD16b) were cloned, produced and purified.
(§2) The chip surface was activated with EDC/NHS (N-ethyl-N′-(3-dimethylaminopropyl) carbodiimidehydrochloride and N-hydroxysuccinimide (Biacore GE Healthcare)). Bispecific antibodies were diluted to […] in coupling buffer (10 mM acetate, pH 5.6) and injected until the appropriate immobilization level was reached (i.e. 800 to 900 RU). Deactivation of the remaining activated groups was performed using 100 mM ethanolamine pH 8 (Biacore GE Healthcare).
(§3) Monovalent affinity study was assessed following a classical kinetic wizard (as recommended by the manufacturer). Serial dilutions of soluble analytes (FcRs) ranging from 0.7 to 60 nM for CD64 and from 60 to 5000 nM for all the other FcRs were injected over the immobilized bispecific antibodies and allowed to dissociate for 10 min before regeneration. The entire sensorgram sets were fitted using the 1:1 kinetic binding model for CD64 and with the Steady State Affinity model for all the other FcRs.

Experiment [3] concerns the target T3, Human CD32a (human, UniProt P12318 36-218, limits assumed).
T3 construct: also called FcγRIIA
T3 sequence (looked up): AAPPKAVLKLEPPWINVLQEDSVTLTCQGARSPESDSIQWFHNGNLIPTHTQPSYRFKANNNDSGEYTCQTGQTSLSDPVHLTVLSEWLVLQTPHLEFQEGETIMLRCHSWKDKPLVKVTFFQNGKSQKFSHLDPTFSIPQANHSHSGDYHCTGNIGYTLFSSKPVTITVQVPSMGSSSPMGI
Put plainly: SPR (Biacore T100), bispecific immobilised on CM5 chip, soluble FcR 60-5000 nM, Steady State Affinity model. On the procedure:
as §1, §2, §3

Experiment [4] has as its target T4, Human CD32b (human, UniProt P31994 46-217, limits assumed).
T4 construct: also called FcγRIIB
T4 sequence (looked up): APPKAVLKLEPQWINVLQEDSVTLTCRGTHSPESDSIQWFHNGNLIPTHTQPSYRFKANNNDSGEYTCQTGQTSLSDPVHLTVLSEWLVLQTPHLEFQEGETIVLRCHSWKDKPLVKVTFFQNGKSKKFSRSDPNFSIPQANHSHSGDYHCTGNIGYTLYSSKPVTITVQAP
Described as above. On the procedure:
as §1, §2, §3

Experiment [5] concerns the target T5, Human CD16a (human, UniProt P08637 17-208).
T5 construct: also called FcγRIIIa
Described as above. The protocol: as §1, §2, §3

In experiment [6] the target is T6, Human CD16b (human, UniProt O75015 17-200).
T6 construct: also called FcγRIIIb
The description is as above. On the procedure:
as §1, §2, §3

Experiment [7] deals with T2, Human CD64. The experiment is described as follows: SPR (Biacore T100), bispecific immobilised on CM5 chip, soluble FcR. On the procedure: as §1, §2, §3
Experiment [8] addresses T3, Human CD32a. The description is as above. On the procedure: as §1, §2, §3
Experiment [9] concerns the target T4, Human CD32b. The description is as above. The protocol: as §1, §2, §3
Experiment [10] addresses T5, Human CD16a. The description is as above. On the procedure: as §1, §2, §3
Experiment [11] addresses T6, Human CD16b. The description is as above. The protocol: as §1, §2, §3

T5 sequence (P08637 17-208 limits assumed): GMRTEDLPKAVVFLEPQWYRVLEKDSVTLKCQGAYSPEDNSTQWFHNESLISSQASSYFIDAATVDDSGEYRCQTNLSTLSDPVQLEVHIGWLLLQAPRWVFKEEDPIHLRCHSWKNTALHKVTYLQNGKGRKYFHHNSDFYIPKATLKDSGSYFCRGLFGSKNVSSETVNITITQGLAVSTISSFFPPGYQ
T6 sequence (O75015 17-200 limits assumed): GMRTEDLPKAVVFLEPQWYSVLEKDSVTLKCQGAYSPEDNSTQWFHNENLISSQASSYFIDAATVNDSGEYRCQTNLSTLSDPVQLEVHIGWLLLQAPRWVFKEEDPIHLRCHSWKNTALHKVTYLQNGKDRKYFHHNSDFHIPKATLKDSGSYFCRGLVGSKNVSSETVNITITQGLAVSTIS
T2 sequence (P12314 16-288 limits assumed): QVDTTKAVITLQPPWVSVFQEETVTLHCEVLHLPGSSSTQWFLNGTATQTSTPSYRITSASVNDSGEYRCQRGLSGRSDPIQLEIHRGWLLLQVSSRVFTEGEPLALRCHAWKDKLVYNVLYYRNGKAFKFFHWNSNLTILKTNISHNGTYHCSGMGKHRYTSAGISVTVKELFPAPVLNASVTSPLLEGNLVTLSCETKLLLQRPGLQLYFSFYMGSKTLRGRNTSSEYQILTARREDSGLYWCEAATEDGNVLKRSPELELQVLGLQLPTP
T1 sequence (O76036 22-258 Q82K limits assumed): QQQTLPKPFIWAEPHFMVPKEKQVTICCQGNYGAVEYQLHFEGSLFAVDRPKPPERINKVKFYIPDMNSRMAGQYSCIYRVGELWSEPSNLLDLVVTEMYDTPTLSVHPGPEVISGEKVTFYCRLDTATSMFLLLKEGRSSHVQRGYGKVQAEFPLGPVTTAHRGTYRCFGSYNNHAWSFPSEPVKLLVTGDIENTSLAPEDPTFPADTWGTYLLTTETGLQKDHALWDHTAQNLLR

B1: CD19-F1-NKp46-6 (bispecific antibody)
chain: DIQLTQSPASLAVSLGQRATISCKASQSVDYDGDSYLNWYQQIPGQPPKLLIYDASNLVSGIPPRFSGSGSGTDFTLNIHPVEKVDAATYHCQQSTEDPWTFGGGTKLEIKGGGGSGGGGSGGGGSQVQLQQSGAELVRPGSSVKISCKASGYAFSSYWMNWVKQRPGQGLEWIGQIWPGDGDTNYNGKFKGKATLTADESSSTAYMQLSSLASEDSAVYFCARRETTTVGRYYYAMDYWGQGTTVTVSSGGGSSAPELLGGPSVFLFPPKPKDTLMISRTPEVTCVVVDVSHEDPEVKFNWYVDGVEVHNAKTKPREEQYNSTYRVVSVLTVLHQDWLNGKEYKCKVSNKALPAPIEKTISKAKGQPREPQVYTKPPSREEMTKNQVSLSCLVKGFYPSDIAVEWESNGQPENNYKTTVPVLDSDGSFRLASYLTVDKSRWQQGNVFSCSVMHEALHNHYTQKSLSLSPGSTGSQVQLQQPGSVLVRPGASVKLSCKASGYTFTSSWMHWAKQRPGQGLEWIGHIHPNSGISNYNEKFKGKATLTVDTSSSTAYVDLSSLTSEDSAVYYCARGGRFDDWGAGTTVTVSSVEGGSGGSGGSGGSGGVDDIVMTQSPATLSVTPGDRVSLSCRASQSISDYLHWYQQKSHESPRLLIKYASQSISGIPSRFSGSGSGSDFTLSINSVEPEDVGVYYCQNGHSFLMYTFGGGTKLEIK
notes: Single chain F1 format, complete mature protein
Consider B1, for which the binding result in experiment [1] is reported as “no binding”.

B2: CD19-F5-NKp46-3 (bispecific antibody, human IgG1, kappa)
chain 1: not shown
chain 2: not shown
chain 3: DIVMTQSPATLSVTPGDRVSLSCRASQSISDYLHWYQQKSHESPRLLIKYASQSISGIPSRFSGSGSGSDFTLSINSVEPEDVGVYYCQNGHSFPLTFGAGTKLELKASTKGPSVFPLAPSSKSTSGGTAALGCLVKDYFPEPVTVSWNSGALTSGVHTFPAVLQSSGLYSLSSVVTVPSSSLGTQTYICNVNHKPSNTKVDKRVEPKSCDKTH
Regarding B2, the Kd was 0.7 nM in the experiment with Human CD64 [2]; 846 nM in the experiment with Human CD32a [3]; 1850 nM with Human CD32b [4]; 1100 nM in the experiment with Human CD16a [5]; 2430 nM in the experiment with Human CD16b [6].

B3: CD19-F6-NKp46-3 (bispecific antibody, human IgG1, kappa)
chain 1: not shown
chain 2: not shown
chain 3: DIVMTQSPATLSVTPGDRVSLSCRASQSISDYLHWYQQKSHESPRLLIKYASQSISGIPSRFSGSGSGSDFTLSINSVEPEDVGVYYCQNGHSFPLTFGAGTKLELKASTKGPSVFPLAPSSKSTSGGTAALGCLVKDYFPEPVTVSWNSGALTSGVHTFPAVLQSSGLYSLSSVVTVPSSSLGTQTYICNVNHKPSNTKVDKRVEPKSCDKTH
For the molecule B3, the binding result in the experiment with Human CD64 [7] was “no binding (tested: 0.7 to 60 nM)”; with Human CD32a [8], “no binding (tested: 60 to 5000 nM)”; in the experiment with Human CD32b [9], “no binding (tested: 60 to 5000 nM)”; with Human CD16a [10], “no binding (tested: 60 to 5000 nM)”; in the experiment with Human CD16b [11], “no binding (tested: 60 to 5000 nM)”.
